The values that follow come from the supplement of paper PMC9112550, “Optimization of the antimicrobial peptide Bac7 by deep mutational scanning” (BMC Biology, 2022).
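Also: peptides expressed intracellularly from a pBAD plasmid library in pooled LB shake-flask culture, induced with 0.3% L-arabinose, DNA abundance read by NGS, three biological replicates, DESeq2 with apeglm shrinkage.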

For the data set, the system named is Escherichia coli TOP10. Kind of data set: shrunken log2 fold change of peptide-encoding DNA abundance (4.5 h post-induction vs induction); higher = less antimicrobial activity (less host growth inhibition). Conditions: time post-induction: 4.5 h; library: site-saturation at positions 5, 18, 19, 20.
RRIRWRPPRLPRPRPRPCDVPRP: the “shrunken log2 fold change” value is -0.00226.
In the case of RRIRKRPPRLPRPRPRPVLKPRP it was 0.185; in that of RRIRKRPPRLPRPRPRPEMSPRP, 0.325.
In the case of RRIRWRPPRLPRPRPRPCGMPRP it was 0.259; in that of RRIRIRPPRLPRPRPRPYFPPRP, -0.909.
For RRIRTRPPRLPRPRPRPNLVPRP, the “shrunken log2 fold change” value was -0.149.
As for RRIRHRPPRLPRPRPRPWYHPRP, the “shrunken log2 fold change” value was -1.53.
Turning to RRIRARPPRLPRPRPRPRMLPRP, the “shrunken log2 fold change” value came out at 0.395.
As for RRIRNRPPRLPRPRPRPNPTPRP, the “shrunken log2 fold change” value is -0.124.
In the case of RRIRYRPPRLPRPRPRPPIRPRP it was -0.121; in that of RRIRNRPPRLPRPRPRPDSDPRP, -0.00992; in that of RRIRTRPPRLPRPRPRPIDQPRP, -0.00192.
As for RRIRGRPPRLPRPRPRPWDKPRP, the “shrunken log2 fold change” value stood at 0.067.
To RRIRTRPPRLPRPRPRPTLMPRP belongs -0.142.
In the case of RRIRHRPPRLPRPRPRPSDWPRP it was -0.327; in that of RRIRHRPPRLPRPRPRPQYRPRP, -0.0967.
To RRIRMRPPRLPRPRPRPVNKPRP belongs -0.256.
On to RRIRSRPPRLPRPRPRPWMVPRP, for which the “shrunken log2 fold change” value is -0.267.
RRIRLRPPRLPRPRPRPYVYPRP: the “shrunken log2 fold change” value is -0.706.
In the case of RRIRARPPRLPRPRPRPDPHPRP, the “shrunken log2 fold change” value stood at 0.373.
To RRIRIRPPRLPRPRPRPKMKPRP belongs -0.457; to RRIRERPPRLPRPRPRPPPRPRP, 0.837; to RRIRHRPPRLPRPRPRPCELPRP, 0.00567.
In the case of RRIRWRPPRLPRPRPRPYASPRP it was -0.121; in that of RRIRTRPPRLPRPRPRPCFVPRP, -0.454; in that of RRIRGRPPRLPRPRPRPPNDPRP, 0.76.
In the case of RRIRLRPPRLPRPRPRPHMIPRP it was -0.672.
On to RRIRARPPRLPRPRPRPQNPPRP, for which the “shrunken log2 fold change” value worked out at 0.0626.
RRIRARPPRLPRPRPRPDEGPRP: the “shrunken log2 fold change” value was 0.37.
To RRIRSRPPRLPRPRPRPWGIPRP belongs -0.118.
In the case of RRIRIRPPRLPRPRPRPFAPPRP, the “shrunken log2 fold change” value was determined as 1.3.
In the case of RRIRYRPPRLPRPRPRPAMWPRP it was -0.0439; in that of RRIRLRPPRLPRPRPRPGNSPRP, -0.0133; in that of RRIRRRPPRLPRPRPRPLGVPRP, 0.238.
In the case of RRIRTRPPRLPRPRPRPGCAPRP it was 0.515.
Regarding RRIRKRPPRLPRPRPRPIKKPRP, the “shrunken log2 fold change” value is -0.077.
In the case of RRIRPRPPRLPRPRPRPVMVPRP it was 0.171; in that of RRIRRRPPRLPRPRPRPFPEPRP, 0.212.
For the sequence RRIRSRPPRLPRPRPRPYGQPRP, the “shrunken log2 fold change” value was -0.134.
To RRIRKRPPRLPRPRPRPMHNPRP belongs -0.136; to RRIRHRPPRLPRPRPRPKCYPRP, -0.0358.
In the case of RRIRPRPPRLPRPRPRPWWDPRP it was -0.204; in that of RRIRWRPPRLPRPRPRPAYYPRP, -0.157; in that of RRIRCRPPRLPRPRPRPIKKPRP, -0.0497.
With RRIRVRPPRLPRPRPRPCIIPRP, the “shrunken log2 fold change” value is -0.0793.
In the case of RRIRDRPPRLPRPRPRPKDDPRP it was 0.0765.
For the sequence RRIRVRPPRLPRPRPRPCWMPRP, the “shrunken log2 fold change” value is -0.46.
In the case of RRIRPRPPRLPRPRPRPTNVPRP it was -0.0325; in that of RRIRCRPPRLPRPRPRPLGIPRP, -0.149; in that of RRIRDRPPRLPRPRPRPNLTPRP, -0.325.
In the case of RRIRARPPRLPRPRPRPYTQPRP it was -0.593.
In the case of RRIRFRPPRLPRPRPRPVNAPRP it was 0.135; in that of RRIRPRPPRLPRPRPRPMPEPRP, -0.0242; in that of RRIRYRPPRLPRPRPRPPFYPRP, -0.789.
As to RRIRRRPPRLPRPRPRPHENPRP, the “shrunken log2 fold change” value is -0.019.
For RRIRLRPPRLPRPRPRPEMWPRP, the “shrunken log2 fold change” value was determined as 0.204.
In the case of RRIRSRPPRLPRPRPRPRIHPRP it was -0.323; in that of RRIRDRPPRLPRPRPRPLPDPRP, 0.701.
To RRIRFRPPRLPRPRPRPALPPRP belongs 0.0544.
In the case of RRIRKRPPRLPRPRPRPYKCPRP it was -0.168; in that of RRIRSRPPRLPRPRPRPHPPPRP, 0.436; in that of RRIRNRPPRLPRPRPRPINHPRP, -0.705.
Turning to RRIRYRPPRLPRPRPRPGIHPRP, the “shrunken log2 fold change” value was -0.467.
To RRIRIRPPRLPRPRPRPTQYPRP belongs -0.616; to RRIRCRPPRLPRPRPRPTVGPRP, 0.224; to RRIRQRPPRLPRPRPRPIQWPRP, 0.34.
In the case of RRIRDRPPRLPRPRPRPCGEPRP it was 0.488.
To RRIRKRPPRLPRPRPRPVVWPRP belongs 0.602; to RRIRSRPPRLPRPRPRPIKKPRP, 0.234.
With RRIRDRPPRLPRPRPRPGFQPRP, the “shrunken log2 fold change” value is 0.252.
On to RRIRPRPPRLPRPRPRPKDSPRP, for which the “shrunken log2 fold change” value is -0.157.
In the case of RRIRCRPPRLPRPRPRPWNQPRP it was -0.516.
Regarding RRIRARPPRLPRPRPRPRPPPRP, the “shrunken log2 fold change” value is 1.26.
In the case of RRIRFRPPRLPRPRPRPAENPRP, the “shrunken log2 fold change” value is -0.134.
To RRIRYRPPRLPRPRPRPRDYPRP belongs -1.39.
In the case of RRIRSRPPRLPRPRPRPAENPRP it was 0.151; in that of RRIRIRPPRLPRPRPRPKPSPRP, 0.128; in that of RRIRDRPPRLPRPRPRPLEVPRP, 0.121.
To RRIRARPPRLPRPRPRPRYLPRP belongs -0.351.
As to RRIRVRPPRLPRPRPRPPENPRP, the “shrunken log2 fold change” value was -0.0386.
RRIRNRPPRLPRPRPRPTEKPRP: the “shrunken log2 fold change” value is -0.0107.
To RRIRVRPPRLPRPRPRPGQFPRP belongs -0.156; to RRIRGRPPRLPRPRPRPGYPPRP, 0.115; to RRIRARPPRLPRPRPRPIYMPRP, -0.11.
In the case of RRIRTRPPRLPRPRPRPFPDPRP it was -0.123.
To RRIRHRPPRLPRPRPRPVWWPRP belongs 0.174; to RRIRDRPPRLPRPRPRPFITPRP, -0.118.
In the case of RRIRIRPPRLPRPRPRPLTEPRP, the “shrunken log2 fold change” value was -0.044.
As to RRIRFRPPRLPRPRPRPVCTPRP, the “shrunken log2 fold change” value is -0.324.
In the case of RRIRNRPPRLPRPRPRPMKHPRP it was -0.705; in that of RRIRVRPPRLPRPRPRPPYQPRP, -0.3; in that of RRIRKRPPRLPRPRPRPLGYPRP, 0.202.
To RRIRPRPPRLPRPRPRPPVDPRP belongs 0.52; to RRIRHRPPRLPRPRPRPWRQPRP, 0.0449; to RRIRVRPPRLPRPRPRPRMNPRP, -0.0411.
To RRIRPRPPRLPRPRPRPQWMPRP belongs 0.00643; to RRIRGRPPRLPRPRPRPACGPRP, 0.967; to RRIRPRPPRLPRPRPRPVHGPRP, 0.0843.
Take RRIRNRPPRLPRPRPRPENNPRP: the “shrunken log2 fold change” value was -0.106.
In the case of RRIRQRPPRLPRPRPRPFPTPRP it was -0.0177.
In the case of RRIRQRPPRLPRPRPRPLWQPRP it was 0.296; in that of RRIRDRPPRLPRPRPRPDGCPRP, 0.252.
RRIRWRPPRLPRPRPRPFCHPRP: the “shrunken log2 fold change” value is -0.0562.
RRIRTRPPRLPRPRPRPFYIPRP: the “shrunken log2 fold change” value was -0.57.
In the case of RRIRARPPRLPRPRPRPISTPRP it was -0.295; in that of RRIRPRPPRLPRPRPRPREDPRP, 0.134.
To RRIRARPPRLPRPRPRPFERPRP belongs -0.0075.
In the case of RRIRERPPRLPRPRPRPISLPRP, the “shrunken log2 fold change” value is -0.28.
In the case of RRIRPRPPRLPRPRPRPDSPPRP it was 0.0152; in that of RRIRIRPPRLPRPRPRPAIMPRP, -0.565.
To RRIRTRPPRLPRPRPRPCKEPRP belongs -0.00136; to RRIRRRPPRLPRPRPRPHCSPRP, -0.0453.
In the case of RRIRSRPPRLPRPRPRPMAAPRP it was 1.8.
Take RRIRLRPPRLPRPRPRPFNPPRP: the “shrunken log2 fold change” value is -0.349.
Take RRIRIRPPRLPRPRPRPTIPPRP: the “shrunken log2 fold change” value was -0.463.
In the case of RRIRPRPPRLPRPRPRPPWMPRP it was 0.407; in that of RRIRVRPPRLPRPRPRPPVDPRP, 0.0819; in that of RRIRRRPPRLPRPRPRPMRTPRP, 0.911.
As for RRIRWRPPRLPRPRPRPNAAPRP, the “shrunken log2 fold change” value came to 0.81.
To RRIRERPPRLPRPRPRPPYGPRP belongs -0.244; to RRIRFRPPRLPRPRPRPVFQPRP, 0.071; to RRIRYRPPRLPRPRPRPNESPRP, 0.0169.
In the case of RRIRDRPPRLPRPRPRPSEWPRP, the “shrunken log2 fold change” value is -0.0637.
Regarding RRIRSRPPRLPRPRPRPIGLPRP, the “shrunken log2 fold change” value worked out at 0.074.
In the case of RRIRTRPPRLPRPRPRPEFGPRP it was 0.0617.
